Data as given in patent US20250034258A1 (Merck Sharp & Dohme, published 2025).

Key:
human PD-L1 = target: T1, human PD-L1 (human, UniProt Q9NZQ7 19-290); experiment: flow cytometry on CHO-K1.hPD-L1 cells, anti-FLAG detection
T1 construct: whole, on cells; also called hPD-L1; CHO-K1.hPD-L1
Method: CHO-K1.hPD-L1 cells were resuspended in Stain Buffer (PBS, 2% FBS, 0.05% sodium azide) and 1E5 cells/well were transferred to a 96-well V-bottom plate and centrifuged. Cells were suspended in 100 μL/well serial diluted VHH or anti-PD-L1 antibody (atezolizumab) in Stain Buffer and incubated for 30 minutes at 4° C. VHH binding was detected by resuspending the samples subsequently in 100 μL/well mouse a-FLAG antibody (Sigma: F1804) and detected with PE-labeled goat anti-mouse IgG (Jackson ImmunoResearch: 115-116-071) as detection antibody and 5 nM TOPRO3 (Molecular Probes: T3605) as dead dye. Between each step, the cells were collected via centrifugation for 5 minutes at 200×g and washed three times with 100 μL/well Stain Buffer.

human PD-1 = target: T2, human PD-1 (human, UniProt Q15116 25-288); experiment: flow cytometry on CHO-K1.hPD-1 cells, anti-FLAG detection
T2 construct: whole, on cells; also called hPD-1; CHO-K1.hPD-1
T2 sequence (Q15116 25-288): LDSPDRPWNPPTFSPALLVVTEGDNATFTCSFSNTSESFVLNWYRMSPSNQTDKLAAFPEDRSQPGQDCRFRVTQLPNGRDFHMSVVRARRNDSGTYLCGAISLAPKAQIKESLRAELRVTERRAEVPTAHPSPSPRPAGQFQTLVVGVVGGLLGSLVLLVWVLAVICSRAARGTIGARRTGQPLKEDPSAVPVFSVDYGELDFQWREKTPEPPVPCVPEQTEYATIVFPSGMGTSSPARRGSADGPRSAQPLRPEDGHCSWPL

T1 sequence (Q9NZQ7 19-290): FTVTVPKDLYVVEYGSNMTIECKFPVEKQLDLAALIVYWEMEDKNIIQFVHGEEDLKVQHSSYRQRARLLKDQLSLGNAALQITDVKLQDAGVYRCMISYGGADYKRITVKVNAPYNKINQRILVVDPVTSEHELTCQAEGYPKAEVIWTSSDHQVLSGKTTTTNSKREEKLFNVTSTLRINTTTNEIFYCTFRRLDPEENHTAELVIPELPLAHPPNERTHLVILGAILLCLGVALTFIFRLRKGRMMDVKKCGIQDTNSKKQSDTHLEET

binding result (human PD-L1) | binding result (human PD-1) | Binder
binds |  | α-PD-L1 VHH 2 (VHH) VHH: EVQLVESGGGLKQAGGSLRLSCTASARASTYIAMAWFRRTPGKAREFVAAITWSGGHTTYADSMKGRFTISRDNAKNTVYLHLNALQPEDAGVYYCAANQRNTVGPSEGAYPYWGQGTLVTVSS
 | binds | α-PD-1 VHH (VHH, also called anti-PD-1 VHH) VHH: EVQLVESGGGLVQAGDSLRLSCVASGRTFSSYHMGWFRQAPGKEREFVAAIPRSGSNIGYSAFVKDRGTISRDNAKNTVYLQINNLAPDDTAVYYCAAKSAAGYYSGVVFTADYDYTYWGQGTLVTVSS
binds |  | α-PD-L1 VHH (VHH, also called anti-PD-L1 VHH) VHH: EVQLVESGGGLVQAGGSLSVSCAPSGRTFSNYAMGWFRQAPGKEREFVARISGGGGYTAYADSVKGRFTIARDNAKNTVYLQMNSLKPEDTAVYYCAAGSIDSRQPYDSTRRYDYWGQGTLVTVSS
binds |  | α-PD-L1 VHH 3 (VHH) VHH: EVQLVESGGGLVQPGGSLRLSCAASGRTLSNHAMHWFRQAPGKEREFVSAITWSDGETYYEDSVKGRFTISRDNAKDTAYLEMQSLKPEDTAVYYCAAKMGGPTSIPGLVEYWGQGTLVTVSS
